We go through 36 variants from the Human Domainome abundance scans (Beltran et al. 2025).

± gives the uncertainty stated by the source.

To fix the notation:
B1: Far upstream element-binding protein 3, residues 75 to 150; numbered along this chain, Q96I24 (parent)
chain: RTVITEEFKVPDKMVGFIIGRGGEQISRIQAESGCKIQIASESSGIPERPCVLTGTPESIEQAKRLLGQIVDRCRN

Variants of B1 are the subject of this data set. As to the kind of experiment: abundance fitness (aPCA) (normalised: wild type 0, dead -1); higher = more abundant; growth selection in yeast, the domain comes from the species named. The conditions noted are these: Homo sapiens.
With RTVITEEFKVPDKMVGFIIGRGGEQISRIQAESGCKIQIASESSGIPERPCVLTGTPESIEQAKRLLMQIVDRCRN, the abundance fitness turned out to be 0.001 ± 0.044.
The value for RTVITEEFKVPDKMVGFIIGRGGEQISRIQAESGCKIQIASESSGIPERPCVLTGTPESIEQAKRLLSQIVDRCRN was -0.065 ± 0.035.
The value for RTVITEEFKVPDKMVGFIIGRGGEQISRIQAESGCKIQIASESSGIPERPCVLTGTPESIEQAKRLLWQIVDRCRN was -0.065 ± 0.037; that for RTVITEEFKVPDKMVGFIIGRGGEQISRIQAESGCKIQIASESSGIPERPCVLTGTPESIEQAKRLLVQIVDRCRN was -0.017 ± 0.032.
For the variant RTVITEEFKVPDKMVGFIIGRGGEQISRIQAESGCKIQIASESSGIPERPCVLTGTPESIEQAKRLLAQIVDRCRN, the abundance fitness is -0.066 ± 0.033.
The value for RTVITEEFKVPDKMVGFIIGRGGEQISRIQAESGCKIQIASESSGIPERPCVLTGTPESIEQAKRLLTQIVDRCRN was -0.06 ± 0.039; that for RTVITEEFKVPDKMVGFIIGRGGEQISRIQAESGCKIQIASESSGIPERPCVLTGTPESIEQAKRLLHQIVDRCRN was -0.066 ± 0.071; that for RTVITEEFKVPDKMVGFIIGRGGEQISRIQAESGCKIQIASESSGIPERPCVLTGTPESIEQAKRLLEQIVDRCRN was -0.026 ± 0.038.
For the variant RTVITEEFKVPDKMVGFIIGRGGEQISRIQAESGCKIQIASESSGIPERPCVLTGTPESIEQAKRLLYQIVDRCRN, the abundance fitness is -0.045 ± 0.056.
With RTVITEEFKVPDKMVGFIIGRGGEQISRIQAESGCKIQIASESSGIPERPCVLTGTPESIEQAKRLLPQIVDRCRN, the abundance fitness was -0.723 ± 0.061.
The figure for RTVITEEFKVPDKMVGFIIGRGGEQISRIQAESGCKIQIASESSGIPERPCVLTGTPESIEQAKRLLCQIVDRCRN is -0.066 ± 0.048.
Turning to RTVITEEFKVPDKMVGFIIGRGGEQISRIQAESGCKIQIASESSGIPERPCVLTGTPESIEQAKRLLNQIVDRCRN, the abundance fitness is -0.043 ± 0.069.
The value for RTVITEEFKVPDKMVGFIIGRGGEQISRIQAESGCKIQIASESSGIPERPCVLTGTPESIEQAKRLLFQIVDRCRN was -0.17 ± 0.058; that for RTVITEEFKVPDKMVGFIIGRGGEQISRIQAESGCKIQIASESSGIPERPCVLTGTPESIEQAKRLLDQIVDRCRN was -0.001 ± 0.048.
As to RTVITEEFKVPDKMVGFIIGRGGEQISRIQAESGCKIQIASESSGIPERPCVLTGTPESIEQAKRLLRQIVDRCRN, the abundance fitness is -0.036 ± 0.029.
Take RTVITEEFKVPDKMVGFIIGRGGEQISRIQAESGCKIQIASESSGIPERPCVLTGTPESIEQAKRLLLQIVDRCRN: the abundance fitness was -0.046 ± 0.032.
As to RTVITEEFKVPDKMVGFIIGRGGEQISRIQAESGCKIQIASESSGIPERPCVLTGTPESIEQAKRLLIQIVDRCRN, the abundance fitness was -0.092 ± 0.061.
As to RTVITEEFKVPDKMVGFIIGRGGEQISRIQAESGCKIQIASESSGIPERPCVLTGTPESIEQAKRLLGMIVDRCRN, the abundance fitness is -0.03 ± 0.043.
The value for RTVITEEFKVPDKMVGFIIGRGGEQISRIQAESGCKIQIASESSGIPERPCVLTGTPESIEQAKRLLGEIVDRCRN was 0.025 ± 0.037; that for RTVITEEFKVPDKMVGFIIGRGGEQISRIQAESGCKIQIASESSGIPERPCVLTGTPESIEQAKRLLGKIVDRCRN was -0.046 ± 0.044.
The value for RTVITEEFKVPDKMVGFIIGRGGEQISRIQAESGCKIQIASESSGIPERPCVLTGTPESIEQAKRLLGNIVDRCRN was -0.059 ± 0.057; that for RTVITEEFKVPDKMVGFIIGRGGEQISRIQAESGCKIQIASESSGIPERPCVLTGTPESIEQAKRLLGIIVDRCRN was 0.02 ± 0.062.
The value for RTVITEEFKVPDKMVGFIIGRGGEQISRIQAESGCKIQIASESSGIPERPCVLTGTPESIEQAKRLLGWIVDRCRN was -0.283 ± 0.038; that for RTVITEEFKVPDKMVGFIIGRGGEQISRIQAESGCKIQIASESSGIPERPCVLTGTPESIEQAKRLLGAIVDRCRN was -0.006 ± 0.032.
Regarding RTVITEEFKVPDKMVGFIIGRGGEQISRIQAESGCKIQIASESSGIPERPCVLTGTPESIEQAKRLLGHIVDRCRN, the abundance fitness is 0.021 ± 0.059.
The figure for RTVITEEFKVPDKMVGFIIGRGGEQISRIQAESGCKIQIASESSGIPERPCVLTGTPESIEQAKRLLGGIVDRCRN is -0.012 ± 0.03.
The figure for RTVITEEFKVPDKMVGFIIGRGGEQISRIQAESGCKIQIASESSGIPERPCVLTGTPESIEQAKRLLGCIVDRCRN is -0.076 ± 0.046; for RTVITEEFKVPDKMVGFIIGRGGEQISRIQAESGCKIQIASESSGIPERPCVLTGTPESIEQAKRLLGRIVDRCRN it is 0.005 ± 0.029.
Take RTVITEEFKVPDKMVGFIIGRGGEQISRIQAESGCKIQIASESSGIPERPCVLTGTPESIEQAKRLLGVIVDRCRN: the abundance fitness was -0.009 ± 0.031.
The figure for RTVITEEFKVPDKMVGFIIGRGGEQISRIQAESGCKIQIASESSGIPERPCVLTGTPESIEQAKRLLGFIVDRCRN is -0.181 ± 0.062.
Turning to RTVITEEFKVPDKMVGFIIGRGGEQISRIQAESGCKIQIASESSGIPERPCVLTGTPESIEQAKRLLGSIVDRCRN, the abundance fitness was -0.002 ± 0.031.
The value for RTVITEEFKVPDKMVGFIIGRGGEQISRIQAESGCKIQIASESSGIPERPCVLTGTPESIEQAKRLLGDIVDRCRN was 0.021 ± 0.049; that for RTVITEEFKVPDKMVGFIIGRGGEQISRIQAESGCKIQIASESSGIPERPCVLTGTPESIEQAKRLLGPIVDRCRN was -0.156 ± 0.039; that for RTVITEEFKVPDKMVGFIIGRGGEQISRIQAESGCKIQIASESSGIPERPCVLTGTPESIEQAKRLLGQIADRCRN was -0.117 ± 0.03.
As for RTVITEEFKVPDKMVGFIIGRGGEQISRIQAESGCKIQIASESSGIPERPCVLTGTPESIEQAKRLLGQIFDRCRN, the abundance fitness was -0.099 ± 0.058.
Consider RTVITEEFKVPDKMVGFIIGRGGEQISRIQAESGCKIQIASESSGIPERPCVLTGTPESIEQAKRLLGQIGDRCRN, for which the abundance fitness is -0.105 ± 0.026.
